Measured values: patent publication US20220389119A1

Target: WT Fc chain lacking a warhead
Experiment: co-expression in HEK 293 EBNA1, protein A purification, non-reduced micro-capillary gel electrophoresis; 50 kDa = Fc homodimer lacking warheads

WT Fc chain lacking a warhead
NR-mCE 50 kDa (%): 21.4%
